Consider five molecules from patent US20240109962A1 (SPARX BIOSCIENCE, published 2024).

Assay [1] deals with T1, human LILRB2 expressed on cells (293T-LILRB2, CHO-K1-LILRB2) (human, UniProt Q8N423 22-597).
T1 construct: whole, on cells; the cell line is named under assay; also called HEK293T-LILRB2
As to the kind of experiment: flow cytometry on 293T-LILRB2 cells, serial dilution, APC anti-human IgG; fit table under the graph. From the text:
(§1) The cells were washed and then subject to flow cytometry to measure levels of fluorescent signals.

Assay [2] has as its target T1, human LILRB2 expressed on cells …. As to the kind of experiment: flow cytometry, blockade of His-tagged HLA-G tetramer binding to 293T-LILRB2 cells; fit table under the graph. The procedure: (§2) Serial diluted humanized LILRB2 antibodies were then added to the mixture and incubated at room temperature for another 45 minutes. The binding of HLA-G/LILRB2 was detected afterwards using a secondary PE-labeled anti-His tag antibody via flow cytometry.

For assay [3] the target is unchanged. As to the kind of experiment: flow cytometry, blockade of His-tagged HLA-G tetramer binding to 293T-LILRB2 cells; fit table under the graph, row headed EC50. The procedure: as §2
Assay [4] shares this target. As to the kind of experiment: flow cytometry, blockade of His-tagged HLA-A2 tetramer binding to 293T-LILRB2 cells.
Assay [5] has the same target. In words: flow cytometry, blockade of His-tagged HLA-G tetramer binding to 293T-LILRB2 cells; fit table under the graph. As to the method:
as §2
The source holds these as a separate data set.

The target is the same in assay [6]. As to the kind of experiment: flow cytometry on 293T-LILRB2 cells, serial dilution, APC anti-human IgG; fit table under the graph.
From the text: as §1
The source holds these as a separate data set.

Assay [7] shares this target. As to the kind of experiment: flow cytometry, blockade of His-tagged HLA-G tetramer binding to 293T-LILRB2 cells; fit table under the graph. The procedure:
as §2
This is another data set of the same source.

Assay [8] shares this target. In words: flow cytometry, blockade of His-tagged HLA-A2 tetramer binding to 293T-LILRB2 cells; fit table under the graph.
For assay [9] the target is unchanged. In words: flow cytometry on 293T-LILRB2 cells, serial dilution, APC anti-human IgG; fit table under the graph.
From the text: as §1
The source holds these as a separate data set.

The target is the same in assay [10]. Described as above.
From the text: as §1
The source holds these as a separate data set.

Assay [11] deals with T2, recombinant human LILRB2 protein (human, UniProt Q8N423 22-460, limits assumed).
T2 construct: also called recombinant LILRB2 protein
T2 sequence (Q8N423 22-460 limits assumed): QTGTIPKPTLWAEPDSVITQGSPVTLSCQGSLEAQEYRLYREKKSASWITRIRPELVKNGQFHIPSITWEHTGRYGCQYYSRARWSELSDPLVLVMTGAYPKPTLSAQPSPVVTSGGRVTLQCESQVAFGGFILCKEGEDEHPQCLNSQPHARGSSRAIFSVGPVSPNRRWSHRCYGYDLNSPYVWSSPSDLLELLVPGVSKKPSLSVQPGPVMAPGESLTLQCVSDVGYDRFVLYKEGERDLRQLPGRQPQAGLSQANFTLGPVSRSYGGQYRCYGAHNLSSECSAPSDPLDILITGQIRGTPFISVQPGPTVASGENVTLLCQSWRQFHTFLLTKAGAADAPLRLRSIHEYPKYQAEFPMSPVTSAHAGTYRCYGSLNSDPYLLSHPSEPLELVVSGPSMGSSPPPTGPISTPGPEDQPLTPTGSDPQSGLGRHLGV
As to the kind of experiment: ELISA, coated recombinant human LILRB2. Also noted: unit not given here. As to the method:
This affinity maturation library was screened against human LILRB2 to identify antibodies having high binding affinity to LILRB2. Briefly, an ELISA plate was coated with 0.1 ug/well recombinant human LILRB2 protein. Serial diluted maturated h#2E1 antibodies were incubated in the LILRB2 coated plate for 2 hrs. The plate was washed and a secondary HRP-labeled anti-human IgG was then added to each well. After being incubated at room temperature for 1 hour, the colorimetric ELISA signals were developed by adding the TMB substrate and reaction was stopped by 1M H3PO4. Table 7 below provides binding activities of exemplary matured antibodies to recombinant LILRB2 protein.

Assay [12] deals with T1, human LILRB2 expressed on cells …. As to the kind of experiment: flow cytometry, His-HLA-A2 tetramer (competitor) bound to 293T-LILRB2 cells, relative to no antibody. Also noted: concentration or dose not given beside the values. As to the method: Serial diluted h#2E1 antibodies were then added to the mixture and incubated at room temperature for another 45 minutes. […]

Assay [13] shares this target. As to the kind of experiment: flow cytometry, 293T-LILRB2 cells. From the text:
The fluorescent signals were detected by flow cytometry.

Assay [14] addresses LILRB2 antigen of the ELISA of Table 5 (format not specified) (UniProt Q8N423 22-460, limits assumed). In words: ELISA, antibody titration.
Assay [15] concerns the target T3, human LILRB3 expressed on 293T cells (human, UniProt O75022 24-631).
T3 construct: whole, on cells
In words: cell ELISA on fixed 293T transfectants, antibody 2 µg/ml, OD490. As to the method: (§3) The cells were then immobilized with glutaraldehyde in the presence of 5% defatted milk at room temperature for 2 hours. An anti-LILRB2 antibody (2 μg/ml) was added to each well and incubated at room temperature for 2 hours. An HRP-labelled goat anti-mouse secondary antibody was then added into each well and incubated at room temperature for one hour. An HRP substrate, o-phenylenediamine dihydrochloride (OPD) was then added to each well. The plate was incubated at room temperature for 15 min to allow color development and OD₄₉₀ values were determined.

Assay [16] concerns the target T4, human LILRB1 expressed on 293T cells (human, UniProt Q8NHL6 24-650).
T4 construct: whole, on cells
The description is as above. The procedure:
as §3

Assay [17] has as its target T5, His-tagged human LILRB2 polypeptide (human, UniProt Q8N423 22-460).
T5 construct: SPR analyte; also called His-tagged human LILBR2 polypeptide; not shown: His tag
In words: SPR, antibody on CM5 chip, His-LILRB2 analyte, 1:1 model. The procedure:
Surface plasmon resonance (SPR) was used to examine binding activities of exemplary anti-LILBR2 antibodies disclosed herein. Briefly, the anti-LILBR2 antibody was diluted in a coating buffer to a concentration of 30 μg/ml, loaded onto CM5 chips at 10 μl/min to allow coating of the antibody on the surface of the CM5 chip. […] Binding affinity was measured based on the 1:1 binding model.

In assay [18] the target is T3, human LILRB3 expressed on 293T cells. As to the kind of experiment: cell ELISA on fixed 293T transfectants, OD490. The gist of the method: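 Transfected cells fixed with glutaraldehyde in 5% defatted milk for 2 h at RT, then probed with antibody at 2 μg/ml for 2 h at RT. Bound antibody detected with HRP goat anti-mouse secondary (1 h) and OPD substrate, 15 min development, OD490 read.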

Like-named read-outs stand apart in the source and are kept apart here.

T1 sequence (Q8N423 22-597): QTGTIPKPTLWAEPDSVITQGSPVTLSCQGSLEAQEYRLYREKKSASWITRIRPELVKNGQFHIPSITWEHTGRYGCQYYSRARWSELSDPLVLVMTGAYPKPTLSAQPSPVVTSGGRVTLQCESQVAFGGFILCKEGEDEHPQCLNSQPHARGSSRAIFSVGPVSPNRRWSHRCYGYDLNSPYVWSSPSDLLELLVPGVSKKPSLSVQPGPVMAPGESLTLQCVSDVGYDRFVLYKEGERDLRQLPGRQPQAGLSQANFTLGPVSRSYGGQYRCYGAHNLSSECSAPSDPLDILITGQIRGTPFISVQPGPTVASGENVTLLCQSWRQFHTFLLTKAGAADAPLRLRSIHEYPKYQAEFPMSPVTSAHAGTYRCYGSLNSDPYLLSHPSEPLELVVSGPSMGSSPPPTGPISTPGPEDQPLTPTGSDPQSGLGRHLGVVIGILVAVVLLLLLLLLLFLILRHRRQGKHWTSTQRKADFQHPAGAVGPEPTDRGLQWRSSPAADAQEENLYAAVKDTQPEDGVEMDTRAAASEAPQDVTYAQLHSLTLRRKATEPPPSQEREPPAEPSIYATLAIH
T5 sequence (Q8N423 22-460 limits assumed): as the sequence (Q8N423 22-460 limits assumed) above
T4 sequence (Q8NHL6 24-650): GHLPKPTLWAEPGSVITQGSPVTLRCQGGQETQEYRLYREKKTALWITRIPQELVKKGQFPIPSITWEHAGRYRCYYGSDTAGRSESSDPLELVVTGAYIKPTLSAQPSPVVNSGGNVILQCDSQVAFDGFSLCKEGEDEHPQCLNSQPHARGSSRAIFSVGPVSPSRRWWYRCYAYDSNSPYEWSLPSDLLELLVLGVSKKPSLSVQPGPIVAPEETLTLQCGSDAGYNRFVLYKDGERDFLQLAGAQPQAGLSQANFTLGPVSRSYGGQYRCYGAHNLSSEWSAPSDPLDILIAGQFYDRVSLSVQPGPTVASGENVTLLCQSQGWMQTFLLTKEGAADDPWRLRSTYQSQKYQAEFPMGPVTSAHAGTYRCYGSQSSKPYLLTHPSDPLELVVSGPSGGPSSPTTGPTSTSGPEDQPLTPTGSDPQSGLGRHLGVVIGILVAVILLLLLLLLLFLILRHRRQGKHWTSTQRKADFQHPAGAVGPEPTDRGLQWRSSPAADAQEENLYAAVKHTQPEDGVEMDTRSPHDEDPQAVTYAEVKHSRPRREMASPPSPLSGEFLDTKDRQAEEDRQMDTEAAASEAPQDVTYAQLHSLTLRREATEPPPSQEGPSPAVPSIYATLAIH
Sequence of LILRB2 antigen of the ELISA of Table 5 (format not specified) (Q8N423 22-460 limits assumed): as the sequence (Q8N423 22-460 limits assumed) above

B1: Antibody h#12a (antibody, V domains shown)
VH: EVQLVESGGGLVQPGGSLRLSCAASGFTFSNFGMHWVRQAPGKGLEWVAYISSGSGTIYYSDTVRGRFTISRDDSKNTLYLQMNSLRAEDTAVYYCARSDYDGDWFFDVWGQGTLVTVSS
VL: DIQMTQSPSSLSASVGDRVTITCKASQDVTTAVAWYQQKPGKAPKLLIYSASFRYTGVPSRFSGSGSGTDFTLTISSLQPEDFATYYCQQHFTTPLTFGQGTKVEIK
notes: Humanized variant of 9B6
As for B1, in [1], the dissociation constant (Kd) was 0.242 nM. The half-maximal inhibitory concentration (IC50) in [2] was found to be 0.318 nM.

B2: Antibody h#2E1 (antibody, V domains shown)
VH: EVQLVESGGGLVQPGGSLRLSCAVSGYSITSGYYWNWIRQAPGKGLEWVAYISYDGNNNYNPSLKNRFTISRDTSKNTFYLQMNSLRAEDTAVYYCAREESTMITTAWFAYWGQGTLVTVSS
VL: DIQMTQSPSSLSASVGDRVTITCRASENIYSNLAWYQQKPGKAPKLLIYGATNLASGVPSRFSGSGSGTDYTLTISSLQPEDFATYYCQHFWDTPYTFGQGTKVEIK
notes: Humanized variant of 11B12; detected with anti-human IgG
In the case of B2, the EC50 in assay [3] worked out at 0.163 nM. In addition, the “IC50 (read off the curve)” value in assay [4] is ~1 nM. The half-inhibitory concentration (IC50) in assay [5] is 0.361 nM; in assay [7], 0.813 nM; in assay [8] it was 0.787 nM. In addition, the Span in [5] came out at 8000 RFU; in assay [2], 11900 RFU. The values for the Bmax in assay [6], in [9] and in assay [10] were 556000 RFU, 618000 RFU and 647000 RFU, respectively. Further, the Kd was found to be 0.162 nM in [6], 0.364 nM in assay [1], 0.377 nM in assay [9] and 0.446 nM in [10].

B3: Antibody 2E1_FC11 (antibody, V domains shown)
VH: EVQLVESGGGLVQPGGSLRLSCAVSGYSITSGYYWNWIRQAPGKGLEWVAYISYDGNINYNPSLKNRFTISRDTSKNTFYLQMNSLRAEDTAVYYCAREESTMITTAWFAYWGQGTLVTVSS
VL: DIQMTQSPSSLSASVGDRVTITCRASENIYSNLAWYQQKPGKAPKLLIYGATNLASGVPSRFSGSGSGTDYTLTISSLQPEDFATYYCQHFWDYPYTFGQGTKVEIK
notes: also called A16
Take B3: the half-inhibitory concentration (IC50) worked out at 0.36 nM in assay [5], 0.472 nM in assay [7], 0.468 nM in [8] and 0.442 nM in [2]. In addition, the Span in [5] came to 5700 RFU; in assay [2] it was 8620 RFU. The Bmax amounted to 1.37 in assay [11] and 461000 in assay [13]. The “% no Ab” value in [12] turned out to be 50.7%.

B4: Antibody 10D7 (antibody, V domains shown)
VH: EVKLVESGGGLVKPGGSLKLSCAASGFTFSSYGMSWVRQTPEKRLEWVATISGAFSYTYYPDSVKGRFTISRDNAKNNLYLQMSSLRSEDTAFYYCARHDNSLYYAMDYWGQGTSVTVSS
VL: NVQITQSPSYLAASPGETITINCRTSKSITKYLAWYQEQPGKTNKLLIYSGSTLQSGIPSRFSGSGSGTDFTLTISSLEPEDFAMYYCQQHNEYPWTFGGGTKLEIK
notes: Mouse hybridoma mAb purified from ascites
Consider B4, for which the Kd in assay [14] is 0.705 nM; in [17], 0.317 nM. Besides, the binding result in [15] and in assay [16] was “binds” in each case. Moreover, the off-rate (koff) in [17] turned out to be 0.000107 s⁻¹. The kon in assay [17] was 338000 M⁻¹ s⁻¹.

B5: Antibody 13D12 (antibody, V domains shown)
VH: EIQLQQSGPELVKPGASVKVSCKASGYAFTSHNIYWVKQSHGKSLEWIGYIDPYNGGSTYNQKFKDKATLTVDKSSSTAYMHLKSLTSEDSAVYYCARGDYRDFWGQGTTLTVSS
VL: DIQMTQTTSSLSASLGDRVTIRCSASQAINNYLNWYQQKPDGTVKLLIYYTSSLHSGVPSRFSGSGSGADYSLTISNLEPEDIATYYCQQYSHLPWTFGGGTTLEIK
notes: as for B4
B5 had a Kd in assay [14] of 2.48 nM. Besides, the binding result in assay [16] is “binds”; in assay [18], “no binding (tested: 2 µg/ml)”.
